The text below walks through data of article PMC10786891, “Massively parallel profiling of RNA-targeting CRISPR-Cas13d”.

By Kd is commonly meant the equilibrium constant for the complex coming apart.

Residue numbers refer to the chain shown, from its start. Numbers in names are those of the source.

B1: target 1 MT 5'PFS GUA 3'PFS CUC (mixed)
RNA 1: CACCCGUGCAAAAAUGCAGGGGUCUAAAACUGAGCGGAUAACCUCUCUAUGG
RNA 2: GGGAAUGGAUCCACAUCUACGAAUUCGUACCAUAGAGAGGUUAUCCGCUCACUCAGAUCGGAAGAGCACACGU
B2: target 1 MT 5'PFS UAA 3'PFS CGG (mixed)
RNA 1: B1 RNA 1
RNA 2: B1 RNA 2 with G27U, U28A, U53G, C54G
B3: target 1 C7G,C21A (mixed)
RNA 1: B1 RNA 1
RNA 2: B1 RNA 2 with C31A, C45G, U53C, C54G
B4: target 1 MT 5'PFS GAC 3'PFS CUC (mixed)
RNA 1: B1 RNA 1
RNA 2: B1 RNA 2 with U28A, A29C
B5: target 1 MT 5'PFS GAC 3'PFS CUA (mixed)
RNA 1: B1 RNA 1
RNA 2: B1 RNA 2 with U28A, A29C, C54A
B6: target 1 MT 5'PFS GUU 3'PFS CCC (mixed)
RNA 1: B1 RNA 1
RNA 2: B1 RNA 2 with A29U, U53C
B7: target 1 MT 5'PFS GGC 3'PFS CGG (mixed)
RNA 1: B1 RNA 1
RNA 2: B1 RNA 2 with U28G, A29C, U53G, C54G
B8: target 1 MT 5'PFS GUU 3'PFS CCG (mixed)
RNA 1: B1 RNA 1
RNA 2: B1 RNA 2 with A29U, U53C, C54G
B9: target 1 MT 5'PFS UAA 3'PFS CGA (mixed)
RNA 1: B1 RNA 1
RNA 2: B1 RNA 2 with G27U, U28A, U53G, C54A
B10: target 1 MT 5'PFS GAC 3'PFS CUG (mixed)
RNA 1: B1 RNA 1
RNA 2: B1 RNA 2 with U28A, A29C, C54G
B11: target 1 MT 5'PFS GUU 3'PFS CCA (mixed)
RNA 1: B1 RNA 1
RNA 2: B1 RNA 2 with A29U, U53C, C54A
B12: target 1 MT 5'PFS UGG 3'PFS UAA (mixed)
RNA 1: B1 RNA 1
RNA 2: B1 RNA 2 with G27U, U28G, A29G, C52U, U53A, C54A
B13: target 1 MT 5'PFS CCG 3'PFS AUU (mixed)
RNA 1: B1 RNA 1
RNA 2: B1 RNA 2 with G27C, U28C, A29G, C52A, C54U
B14: target 1 MT 5'PFS GUA 3'PFS CUG (mixed)
RNA 1: B1 RNA 1
RNA 2: B1 RNA 2 with C54G
B15: target 1 MT 5'PFS GUU 3'PFS CCU (mixed)
RNA 1: B1 RNA 1
RNA 2: B1 RNA 2 with A29U, U53C, C54U
B16: target 1 MT 5'PFS GAC 3'PFS CUU (mixed)
RNA 1: B1 RNA 1
RNA 2: B1 RNA 2 with U28A, A29C, C54U
B17: target 1 MT 5'PFS GCA 3'PFS ACA (mixed)
RNA 1: B1 RNA 1
RNA 2: B1 RNA 2 with U28C, C52A, U53C, C54A
B18: target 1 MT 5'PFS GUA 3'PFS CUA (mixed)
RNA 1: B1 RNA 1
RNA 2: B1 RNA 2 with C54A

The target in the data set is T1, EsCas13d, nuclease-dead (Eubacterium siraeum, UniProt B0MS50, R295A;H300A;R849A;H854A).
T1 sequence: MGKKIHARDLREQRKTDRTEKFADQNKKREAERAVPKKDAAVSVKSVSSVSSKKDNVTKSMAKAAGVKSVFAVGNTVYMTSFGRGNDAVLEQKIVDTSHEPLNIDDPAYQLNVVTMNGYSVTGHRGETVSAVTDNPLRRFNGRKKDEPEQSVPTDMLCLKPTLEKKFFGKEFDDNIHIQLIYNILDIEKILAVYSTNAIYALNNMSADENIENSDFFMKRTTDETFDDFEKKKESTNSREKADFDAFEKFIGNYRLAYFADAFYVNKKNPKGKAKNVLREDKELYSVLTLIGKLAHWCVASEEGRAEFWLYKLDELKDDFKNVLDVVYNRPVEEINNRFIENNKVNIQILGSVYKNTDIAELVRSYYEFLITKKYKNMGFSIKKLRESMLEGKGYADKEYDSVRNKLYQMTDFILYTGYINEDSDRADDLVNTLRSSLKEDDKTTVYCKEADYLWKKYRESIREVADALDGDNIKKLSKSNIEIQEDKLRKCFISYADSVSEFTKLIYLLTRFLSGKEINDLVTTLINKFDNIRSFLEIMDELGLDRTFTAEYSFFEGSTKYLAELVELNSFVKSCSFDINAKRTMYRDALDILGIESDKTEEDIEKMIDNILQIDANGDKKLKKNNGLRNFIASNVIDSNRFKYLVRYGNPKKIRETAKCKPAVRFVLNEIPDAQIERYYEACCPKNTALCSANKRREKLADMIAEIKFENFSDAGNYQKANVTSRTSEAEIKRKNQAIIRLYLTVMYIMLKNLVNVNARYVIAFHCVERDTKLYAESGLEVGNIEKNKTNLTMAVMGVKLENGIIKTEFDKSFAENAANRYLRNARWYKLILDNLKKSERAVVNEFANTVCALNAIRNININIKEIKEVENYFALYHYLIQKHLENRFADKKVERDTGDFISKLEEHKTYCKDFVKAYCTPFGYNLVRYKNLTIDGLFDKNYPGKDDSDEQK
Put plainly: crRNA (strand 1, pre-loaded); Mg2+; 40 mM Tris-HCl pH 7.5, 150 mM NaCl, 6 mM MgCl2, 1 mM DTT, 0.1% Tween-20, 0.2 mg/ml BSA; 25 C; 10 min per concentration, then washed. The note with it: tags: His6-TwinStrep-SUMO cleaved; N-terminal SNAP kept (SNAP-Surface 488); label: 3' end held by stalled T7 RNA polymerase.
B1 came in with a Kd of 13.8 ± 1.15 nM.
B2 had a dissociation constant (Kd) of 55.5 ± 17 nM.
For the molecule B3, binding was characterised by a dissociation constant (Kd) of 30 ± 2.3 nM.
To B4 belongs 24 ± 10 nM; to B5, 15.5 ± 5 nM; to B6, 26.5 ± 8.5 nM.
Consider B7, for which the affinity, expressed as Kd, was 27.5 ± 5.5 nM.
With B8, the Kd stood at 11.2 ± 1.55 nM.
To B9 belongs 50 ± 23 nM; to B10, 19 ± 6.5 nM; to B11, 34 ± 8 nM.
To B12 belongs 79.5 ± 27.5 nM.
The molecule B13 yielded a Kd of 3.75 ± 1.75 nM.
To B14 belongs 7.89 ± 0.47 nM; to B15, 11.6 ± 1.9 nM.
To B16 belongs 12.1 ± 3.65 nM.
B17 returned a Kd of 25.5 ± 4.5 nM.
B18: the Kd is 10.2 ± 0.7 nM.
